Experimental data from article PMC8943033, “A toolkit for recombinant production of seven human EGF family growth factors in active conformation” (Scientific Reports, 2022).

Tests used:
[1] = target: human amphiregulin, recombinant heparin-binding and EGF domains (human, UniProt P15514 101-198); assay: SEC; Superdex 75 10/300 GL, 25 mM Tris.HCl pH 8.0; 150 mM NaCl, flow rate 0.8 mL/min; oligomeric state read from the elution volume; details: both partners purified
[2] = target: human heparin-binding epidermal growth factor, recombinant heparin-binding and EGF domains (human, UniProt Q99075 63-148); assay: as above; details: both partners purified

| stoichiometry N [1] | stoichiometry N [2] | Binder |
| --- | --- | --- |
| 2 |  | human amphiregulin, recombinant heparin-binding and EGF domains (ligand, three disulfides (C1-C3, C2-C4, C5-C6); SEC suggests a dimer; N-terminal pET32a linker remnant omitted / three disulfides (C1-C3, C2-C4, C5-C6); SEC suggests a dimer; N-terminal pET32a linker remnant) SVRVEQVVKPPQNKTESENTSDKPKRKKKGGKNGKNRRNRKKKNPCNAEFQNFCIHGECKYIEHLEAVTCKCQQEYFGERCGEKSMKTHSMIDSSLSK |
|  | 2 | human heparin-binding epidermal growth factor, recombinant heparin-binding and EGF domains (ligand, three disulfides (C1-C3, C2-C4, C5-C6); SEC suggests a dimer; N-terminal pET32a linker remnant omitted / three disulfides (C1-C3, C2-C4, C5-C6); SEC suggests a dimer; N-terminal pET32a linker remnant) DLQEADLDLLRVTLSSKPQALATPNKEEHGKRKKKGKGLGKKRDPCLRKYKDFCIHGECKYVKELRAPSCICHPGYHGERCHGLSL |
